# According to IntAct's records for PubMed 16709668:
# B1: "Peptide-N(4)-(N-acetyl-beta-glucosaminyl)asparagine amidase" (Mus musculus), Q9JI78 (parent)
# chain: MASATLGSSSSSASPAVAELCQNTPETFLEASKLLLTYADNILRNPSDEKYRSIRIGNTAFSTRLLPVRGAVECLFEMGFEEGETHLIFPKKASVEQLQKIRDLIAIERSSRLDGSSKKVQFSQHPAAAKLPLEQSEDPAGLIRHSGNQTGQLPSLPSAPMVVGDSTILKVLQSNIQHVQLYENPVLQEKALTCIPVSELKRKAQEKLFRARKLDKGTNVSDEDFLLLELLHWFKEEFFRWVNNIVCSKCGGETRSRDEALLPNDDELKWGAKNVENHYCDACQLSNRFPRYNNPEKLLETRCGRCGEWANCFTLCCRALGFEARYVWDYTDHVWTEVYSPSQQRWLHCDACEDVCDKPLLYEIGWGKKLSYIIAFSKDEVVDVTWRYSCKHDEVMSRRTKVKEELLRETINGLNKQRQLSLSESRRKELLQRIIVELVEFISPKTPRPGELGGRVSGSLAWRVARGETGLERKEILFIPSENEKISKQFHLRYDIVRDRYIRVSDNNINISGWENGVWKMESIFRKVEKDWNMVYLARKEGSSFAYISWKFECGSAGLKVDTVSIRTSSQSFESGSVRWKLRSETAQVNLLGDKNLRSYNDFSGATEVTLEAELSRGDGDVAWQHTQLFRQSLNDSGENGLEIIITFNDL
# Variants of: B1
# Settings: with tera_mouse Vcp
row,Variant,effect of a mutation on the interaction
1,N41P,disrupting interaction
2,G79A;F80A,disrupting interaction
